Target: fibrinogen complex (FC) component of TISSEEL VH S/D
Experiment: SPR; FC coupled to sensor chip, PDGF-AB as analyte in PBS pH 7.4; KD = Koff/Kon by two methods

Q: For “recombinant human PDGF-AB (from UniProt P04085 87-211; P01127 82-190) (ligand)”, which Kd is on record?
A: 342 nM

Reference: patent US20090075881A1
